Measured values taken from patent US20260116921A1, “PEPTIDE INHIBITORS OF INTERLEUKIN-23 RECEPTOR AND THEIR USE TO TREAT INFLAMMATORY DISEASES” (priority 2018, published 2026).
Bridge positions count the residues as written; N and C are the ends. Square brackets hold non-standard residues; d marks the D form. Peptide text beside a SMILES is read from it. Trp(7-Me) = Cc1cccc2c(C[C@H](N)C(=O)O)c[nH]c12; 2Nal = N[C@@H](Cc1ccc2ccccc2c1)C(=O)O; AEF = NCCOc1ccc(C[C@H](N)C(=O)O)cc1; Cit = NC(=O)NCCC[C@H](N)C(=O)O; αMeL = CC(C)C[C@](C)(N)C(=O)O; Pen = CC(C)(S)[C@H](N)C(=O)O; αMeK = C[C@](N)(CCCCN)C(=O)O; βAla = NCCC(=O)O

B1: SEQ ID NO: 208 (peptide)
peptide: XNTXQXXXXKLX
modifications: Ac-[Pen]-NT-[W(7-Me)]-Q-[Pen]-Phe[4-(2-aminoethoxy)]-[2-Nal]-[a-MeLeu]-[Lys(Ac)]-L-[bA]-NH2; Pen-Pen disulfide
B2: SEQ ID NO: 238 (peptide)
peptide: Ac-[Pen][Cit]T[Trp(7-Me)]Q[Pen][AEF][2Nal][αMeK]K(Ac)N[βAla]-NH2
modifications: disulfide 1-6
SMILES: CC(=O)NCCCC[C@H](NC(=O)[C@](C)(CCCCN)NC(=O)[C@H](Cc1ccc2ccccc2c1)NC(=O)[C@H](Cc1ccc(OCCN)cc1)NC(=O)[C@H]1NC(=O)[C@H](CCC(N)=O)NC(=O)[C@H](Cc2c[nH]c3c(C)cccc23)NC(=O)[C@H]([C@@H](C)O)NC(=O)[C@H](CCCNC(N)=O)NC(=O)[C@@H](NC(C)=O)C(C)(C)SSC1(C)C)C(=O)N[C@@H](CC(N)=O)C(=O)NCCC(N)=O
B3: SEQ ID NO: 223 (peptide)
peptide: XNTXQXXXXKXX
modifications: Ac-[Pen]-NT-[W(7-Me)]-Q-[Pen]-Phe[4-(2-aminoethoxy)]-[2-Nal]-[a-MeLeu]-[Lys(Ac)]-[N-MeAla]-[bA]-NH2; Pen-Pen disulfide
B4: SEQ ID NO: 201 (peptide)
peptide: XNTXQXXXXKNX
modifications: Ac-[Pen]-NT-[W(7-Me)]-Q-[Pen]-Phe[4-(2-aminoethoxy)]-[2-Nal]-[a-MeLeu]-[Lys(Ac)]-N-[bA]-NH2; Pen-Pen disulfide
B5: SEQ ID NO: 245 (peptide)
peptide: XNTXKXXXXKNL
modifications: Ac-[Pen]-NT-[W(7-Me)]-[Lys(Ac)]-[Pen]-Phe[4-(2-aminoethoxy)]-[2-Nal]-[a-MeLys]-[Lys(Ac)]-N-[(D)Leu]-NH2; Pen-Pen disulfide
B6: SEQ ID NO: 273 (peptide)
peptide: XNTXKXXXXEXX
modifications: Ac-[Pen]-N-T-[W(7-Me)]-[Lys(Ac)]-[Pen]-Phe[4-(2-aminoethoxy)]-[2-Nal]-[a-MeLys]-E-[bA]-[bA]-NH2; Pen-Pen disulfide
B7: SEQ ID NO: 221 (peptide)
peptide: XNTXQXXXXKSX
modifications: Ac-[Pen]-NT-[W(7-Me)]-Q-[Pen]-Phe[4-(2-aminoethoxy)]-[2-Nal]-[a-MeLeu]-[Lys(Ac)]-S-[bA]-NH2; Pen-Pen disulfide
B8: SEQ ID NO: 207 (peptide)
peptide: XNTXQXXXXKAX
modifications: Ac-[Pen]-NT-[W(7-Me)]-Q-[Pen]-Phe[4-(2-aminoethoxy)]-[2-Nal]-[a-MeLeu]-[Lys(Ac)]-A-[bA]-NH2; Pen-Pen disulfide
B9: SEQ ID NO: 236 (peptide)
peptide: XNTXQXXXXXNX
modifications: Ac-[Pen]-NT-[W(7-Me)]-Q-[Pen]-Phe[4-(2-aminoethoxy)]-[2-Nal]-[a-MeLys]-[Aib]-N-[bA]-NH2; Pen-Pen disulfide
B10: SEQ ID NO: 232 (peptide)
peptide: XNTXQXXXXKNX
modifications: Ac-[Pen]-NT-[W(1-Me)]-Q-[Pen]-Phe[4-(2-aminoethoxy)]-[2-Nal]-[a-MeLys]-[Lys(Ac)]-N-[bA]-NH2; Pen-Pen disulfide

How the values were obtained:
in vitro [1] = settings: human, 20% fecal homogenate (supernatant), anaerobic, pH 6.8
NK cells = assay: NK cell based assay (IL-23/IL-18-induced IFNγ, Quantikine ELISA); settings: human primary NK cells, IL-23 at EC50 to EC75 + IL-18 10 ng/mL, IFNγ after 20 to 24 hours
Procedure: killer (NK) cells, purified from human peripheral blood of healthy donors by negative selection (Miltenyi Biotech, Cat #130-092-657), were cultured in complete media (RPMI 1640 containing […], L-glutamine and penicillin-streptomycin) in the presence of IL-2 (RnD, Cat #202-IL-010/CF) at 25 ng/mL. After 7 days, cells were centrifuged, and resuspended in complete media at IE6 cells/mL. […] After 20 to 24 hours, IFNγ in the supernatant was quantified using Quantikine ELISA (RnD, Cat #DIF50).

IL-23R [2] = target: T1, IL-23R (Homo sapiens, UniProt Q5VWK5); assay: DB cells IL23R pSTAT3 cell assay (pStat3 HTRF); type: cell-based; settings: Table E3; DB cells, IL-23 0.5 nM, 30 minutes at 37° C.; read-out: pStat3 HTRF (IC50)
T1 sequence (Q5VWK5 24-629): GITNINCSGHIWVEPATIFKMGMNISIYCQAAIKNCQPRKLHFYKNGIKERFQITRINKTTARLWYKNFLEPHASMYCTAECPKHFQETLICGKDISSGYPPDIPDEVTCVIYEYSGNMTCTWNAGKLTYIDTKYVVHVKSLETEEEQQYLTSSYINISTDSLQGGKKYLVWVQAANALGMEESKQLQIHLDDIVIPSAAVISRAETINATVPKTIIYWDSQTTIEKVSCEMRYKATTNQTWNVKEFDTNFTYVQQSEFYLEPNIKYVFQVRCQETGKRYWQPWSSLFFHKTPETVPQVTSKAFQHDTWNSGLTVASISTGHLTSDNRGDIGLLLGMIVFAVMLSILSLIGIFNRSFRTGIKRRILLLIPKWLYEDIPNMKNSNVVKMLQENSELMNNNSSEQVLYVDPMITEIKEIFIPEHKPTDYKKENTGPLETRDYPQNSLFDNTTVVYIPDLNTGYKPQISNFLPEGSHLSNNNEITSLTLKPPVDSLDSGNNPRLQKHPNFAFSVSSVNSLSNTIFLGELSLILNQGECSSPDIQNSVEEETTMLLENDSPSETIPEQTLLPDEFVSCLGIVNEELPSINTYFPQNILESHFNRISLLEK
In short: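 DB cells (5×10E5/well, RPMI-1640 + 10% FBS) stimulated with 0.5 nM final IL-23 plus serially diluted test peptides for 30 min at 37 °C, 5% CO2. Phospho-STAT3 (Tyr705) in lysates measured by HTRF using a two-plate protocol.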

in vitro [3] = settings: cynomolgus monkey, 20% fecal homogenate (supernatant), anaerobic, pH 6.8
Procedure: Fecal homogenate (20%) was prepared by adding 4 mL of growth medium (1 liter contains 2 g peptone water powder, 2 g yeast extract, 0.1 g NaCl, 0.04 g KH2PO4, 0.01 g CaCl2·6H2O, 0.01 g MgSO4·7H2O, 2 mL Tween 80, 0.5 g bile salts, 0.5 g L-cysteine HCl, 2 g NaHCO3, and 10 μL Vitamin K, pH adjusted to 6.8, and sterilized by filtration through a 0.22 μm filter) to every gram of feces (pooled freshly collected human or cynomolgus monkey feces). The suspension was vortexed to break up large clumps, and homogenized using a bead mill homogenizer. Centrifuged the homogenate at 2800×g for 15 min. The supernatant is taken out and used for incubations. DMSO stocks (10 mM) were first prepared for the test compounds. Incubations were performed in an anaerobic chamber conditioned at 37° C. Aliquots of the DMSO solutions were dosed into 1.0 mL aliquots of 20% fecal homogenate, which are pre-warmed to 37° C. The final test compound concentration was 20 μM. At each timepoint (0, 20 min, 1, 3, 6, or 24 hours), 100 μL aliquot of each incubation mixture is taken out and added to separate tubes containing 300 μL of 50% acetonitrile/50% methanol and an internal standard to terminate the reaction. Samples were taken out of the anaerobic chamber and stored at 4° C. until the end of the experiment. After the final timepoint is sampled, the tubes were mixed and then centrifuged at 3,000 rpm for 10 minutes. Aliquots of the supernatant were removed, diluted 1:1 into distilled water containing 0.1% formic acid, and analyzed by LC/MS/MS. Percent remaining at each timepoint was calculated based on the peak area response ratio of test to compound to internal standard. Time 0 was set to 100%, and all later timepoints were calculated relative to time 0. Half-lives were calculated by fitting to a first-order exponential decay equation using Graphpad or Excel.

IL-23R [4] = target: T2, IL-23R (human, UniProt Q5VWK5 24-629); assay: cell-based or functional assay
T2 sequence (looked up): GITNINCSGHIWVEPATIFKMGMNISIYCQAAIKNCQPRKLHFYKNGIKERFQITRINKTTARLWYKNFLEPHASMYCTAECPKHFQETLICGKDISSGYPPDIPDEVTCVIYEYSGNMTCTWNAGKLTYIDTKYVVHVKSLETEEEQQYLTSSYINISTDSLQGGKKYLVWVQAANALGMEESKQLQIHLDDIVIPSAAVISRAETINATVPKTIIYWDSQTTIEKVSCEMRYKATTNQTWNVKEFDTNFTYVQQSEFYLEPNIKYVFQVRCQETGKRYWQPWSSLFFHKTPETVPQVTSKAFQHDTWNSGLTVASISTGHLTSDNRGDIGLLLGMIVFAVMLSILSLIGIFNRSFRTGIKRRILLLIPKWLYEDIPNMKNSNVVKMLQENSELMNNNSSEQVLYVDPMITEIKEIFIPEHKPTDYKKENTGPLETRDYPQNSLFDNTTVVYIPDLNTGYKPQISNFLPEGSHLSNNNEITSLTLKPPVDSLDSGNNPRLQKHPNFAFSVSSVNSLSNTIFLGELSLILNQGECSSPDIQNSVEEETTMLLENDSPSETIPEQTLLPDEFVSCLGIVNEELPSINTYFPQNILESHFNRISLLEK

IL-23R [5] = target: T2, IL-23R; assay: cell-based or functional assay; remark: listed apart in the source

| Molecule | pStat3 HTRF (nM) IC50 (IL-23R [4]) | NK Cell Assay (nM) IC50 (IL-23R [5]) | also measured |
| --- | --- | --- | --- |
| CC(=O)NCCCC[C@H](NC(=O)[C@](C)(CC(C)C)NC(=O)[C@H](Cc1ccc2ccccc2c1)NC(=O)[C@H](Cc1ccc(OCCN)cc1)NC(=O)[C@H]1NC(=O)[C@H](CCC(N)=O)NC(=O)[C@H](Cc2c[nH]c3c(C)cccc23)NC(=O)[C@H]([C@@H](C)O)NC(=O)[C@H](CC(N)=O)NC(=O)[C@@H](NC(C)=O)C(C)(C)SSC1(C)C)C(=O)N(C)CC(=O)NCCC(N)=O [compound 224] | – | – | half-life at 20 μM (in vitro [1]): > 1440 min; IC50 (NK cells): 101 to 500 nM; IC50 (IL-23R [2]): > 100 nM; half-life at 20 μM (in vitro [3]): > 1440 min |
| CC(=O)NCCCC[C@H](NC(=O)[C@](C)(CC(C)C)NC(=O)[C@H](Cc1ccc2ccccc2c1)NC(=O)[C@H](Cc1ccc(OCCN)cc1)NC(=O)[C@H]1NC(=O)[C@H](CCC(N)=O)NC(=O)[C@H](Cc2c[nH]c3c(C)cccc23)NC(=O)[C@H]([C@@H](C)O)NC(=O)[C@H](CC(N)=O)NC(=O)[C@@H](NC(C)=O)C(C)(C)SSC1(C)C)C(=O)N[C@@H](CCCNC(N)=O)C(=O)NCCC(N)=O [compound 206] | – | – | half-life at 20 μM (in vitro [1]): 1200 min; IC50 (NK cells): 11 to 100 nM; IC50 (IL-23R [2]): 10 to 100 nM; half-life at 20 μM (in vitro [3]): > 1440 min |
| CC(=O)NCCCC[C@H](NC(=O)[C@](C)(CC(C)C)NC(=O)[C@H](Cc1ccc2ccccc2c1)NC(=O)[C@H](Cc1ccc(OCCN)cc1)NC(=O)[C@H]1NC(=O)[C@H](CCCNC(N)=O)NC(=O)[C@H](Cc2c[nH]c3c(C)cccc23)NC(=O)[C@H]([C@@H](C)O)NC(=O)[C@H](CC(N)=O)NC(=O)[C@@H](NC(C)=O)C(C)(C)SSC1(C)C)C(=O)N[C@@H](CC(N)=O)C(=O)NCCC(N)=O [compound 227] (Ac-[Pen]NT[Trp(7-Me)][Cit][Pen][AEF][2Nal][αMeL]K(Ac)N[βAla]-NH2; disulfide 1-6) | – | – | IC50 (NK cells): < 10 nM; IC50 (IL-23R [2]): < 1 nM |
| CC(=O)NCCCC[C@H](NC(=O)[C@](C)(CCCCN)NC(=O)[C@H](Cc1ccc2ccccc2c1)NC(=O)[C@H](Cc1ccc(OCCN)cc1)NC(=O)[C@H]1NC(=O)[C@H](CCC(N)=O)NC(=O)[C@H](Cc2c[nH]c3c(C)cccc23)NC(=O)[C@H]([C@@H](C)O)NC(=O)[C@H](CC(N)=O)NC(=O)[C@@H](NC(C)=O)C(C)(C)SSC1(C)C)C(=O)N[C@@H](CC(N)=O)C(=O)NCCC(N)=O [compound 202] | – | – | IC50 (NK cells): < 10 nM; IC50 (IL-23R [2]): 1 to 10 nM; half-life at 20 μM (in vitro [3]): 720 min |
| Ac-[Pen]NT[Trp(7-Me)][Cit][Pen][AEF][2Nal][αMeK]K(Ac)N[dY]-NH2 (disulfide 1-6 (inferred)) [SEQ ID NO: 259] | < 1 nM | < 10 nM | – |
| B1 | – | < 10 nM | – |
| B2 | – | < 10 nM | – |
| Ac-[Pen]NT[Trp(7-Me)][Cit][Pen][AEF][2Nal][αMeK]K(Ac)N[dS]-NH2 (disulfide 1-6 (inferred)) [SEQ ID NO: 261] | < 1 nM | < 10 nM | – |
| B3 | > 100 nM | < 10 nM | – |
| B4 | < 1 nM | < 10 nM | – |
| B5 | < 1 nM | < 10 nM | – |
| B6 | – | < 10 nM | – |
| B7 | – | < 10 nM | – |
| B8 | – | < 10 nM | – |
| B9 | – | < 10 nM | – |
| B10 | – | < 10 nM | – |
